In patent publication US20230227547A1 (IPROGEN BIOTECH, published 2023):

Tests used:
folate receptor = molecular target: T1, folate receptor (human, UniProt P15328 25-234); experiment: summary sentence of Example 3
T1 construct: whole, on cells; also called folate receptor alpha

CD33A = molecular target: T2, CD33A (human, UniProt P20138 18-364); experiment: summary sentence of Example 3
T2 construct: whole, on cells

[1] = molecular target: T3, sodium-dependent phosphate transport protein 2B (NaPi2b) (human, UniProt O95436 1-690); experiment: fluorescence microscopy, goat anti-human IgG-AlexaFluor488, OVCAR3 cells, 100 nM mAb, 3 h
T3 construct: whole, on cells
T3 sequence (looked up): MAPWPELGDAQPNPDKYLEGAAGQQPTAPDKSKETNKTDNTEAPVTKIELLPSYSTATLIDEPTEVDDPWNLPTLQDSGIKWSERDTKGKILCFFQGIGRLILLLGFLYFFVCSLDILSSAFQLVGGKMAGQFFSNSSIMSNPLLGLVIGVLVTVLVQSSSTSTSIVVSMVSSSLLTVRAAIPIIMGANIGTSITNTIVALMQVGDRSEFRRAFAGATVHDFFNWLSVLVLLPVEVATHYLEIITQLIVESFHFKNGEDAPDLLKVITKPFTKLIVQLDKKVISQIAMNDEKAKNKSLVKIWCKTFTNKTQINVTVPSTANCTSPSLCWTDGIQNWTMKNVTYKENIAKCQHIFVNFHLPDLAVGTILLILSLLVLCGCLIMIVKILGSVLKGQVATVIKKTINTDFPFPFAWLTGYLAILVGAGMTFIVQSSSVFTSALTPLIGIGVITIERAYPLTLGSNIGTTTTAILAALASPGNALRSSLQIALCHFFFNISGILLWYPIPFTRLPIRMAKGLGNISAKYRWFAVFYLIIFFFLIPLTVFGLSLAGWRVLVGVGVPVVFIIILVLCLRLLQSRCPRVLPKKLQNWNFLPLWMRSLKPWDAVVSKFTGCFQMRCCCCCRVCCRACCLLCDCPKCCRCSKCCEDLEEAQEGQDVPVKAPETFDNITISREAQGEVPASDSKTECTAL
Protocol: (§1) Delivery assay. […] The permeabilized cells were then incubated with 5% (v/v) FBS, 0.05% (v/v) Tween-20 in PBS at 37 degree Celsius incubator for 30 minutes. […] After incubation, the labelled cells were washed twice with PBS, and stored in storage buffer [5% (v/v) FBS in PBS] at 4 degree Celsius until fluorescence microscope imaging.

[2] = molecular target: T3, sodium-dependent phosphate transport …; experiment: fluorescence microscopy, goat anti-human IgG-AlexaFluor488, OVCAR3 cells, 100 nM mAb-LL37, 3 h
Protocol: as §1

[3] = molecular target: T4, Epithelial cell adhesion molecule (EpCAM) (human, UniProt P16422 24-314); experiment: fluorescence microscopy, goat anti-human IgG-AlexaFluor488, LnCap cells, 100 nM mAb, 3 h
T4 construct: whole, on cells
T4 sequence (looked up): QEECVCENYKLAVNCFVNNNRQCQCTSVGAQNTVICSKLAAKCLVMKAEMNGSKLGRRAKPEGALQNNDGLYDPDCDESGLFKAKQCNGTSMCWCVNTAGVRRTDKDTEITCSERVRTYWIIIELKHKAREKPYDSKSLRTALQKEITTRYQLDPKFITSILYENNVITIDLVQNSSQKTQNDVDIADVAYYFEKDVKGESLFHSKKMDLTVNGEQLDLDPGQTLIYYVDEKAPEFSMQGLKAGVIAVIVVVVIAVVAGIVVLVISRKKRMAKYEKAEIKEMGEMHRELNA
Protocol: as §1

[4] = molecular target: T4, Epithelial cell adhesion molecule …; experiment: fluorescence microscopy, goat anti-human IgG-AlexaFluor488, LnCap cells, 100 nM mAb-LL37, 3 h
Protocol: as §1

T1 sequence (P15328 25-234): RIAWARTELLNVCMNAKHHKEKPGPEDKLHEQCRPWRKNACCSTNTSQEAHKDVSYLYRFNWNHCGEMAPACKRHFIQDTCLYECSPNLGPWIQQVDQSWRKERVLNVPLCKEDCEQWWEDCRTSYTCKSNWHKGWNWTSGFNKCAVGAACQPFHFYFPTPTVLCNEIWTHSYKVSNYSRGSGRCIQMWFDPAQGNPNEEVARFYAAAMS
T2 sequence (P20138 18-364): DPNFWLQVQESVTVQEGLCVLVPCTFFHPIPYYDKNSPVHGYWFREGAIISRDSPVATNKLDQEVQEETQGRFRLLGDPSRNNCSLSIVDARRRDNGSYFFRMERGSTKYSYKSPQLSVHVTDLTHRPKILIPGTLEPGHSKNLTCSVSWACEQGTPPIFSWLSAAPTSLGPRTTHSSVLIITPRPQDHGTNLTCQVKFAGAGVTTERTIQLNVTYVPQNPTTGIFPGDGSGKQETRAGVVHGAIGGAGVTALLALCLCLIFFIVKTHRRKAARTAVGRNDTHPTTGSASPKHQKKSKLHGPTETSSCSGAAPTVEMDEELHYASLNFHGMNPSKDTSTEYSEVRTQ

B1: Anti-folate receptor mAb-LL37 (Mirvetuximab-LL37) (antibody, human IgG1, kappa)
heavy: not shown
light: DIVLTQSPLSLAVSLGQPAIISCKASQSVSFAGTSLMHWYHQKPGQQPRLLIYRASNLEAGVPDRFSGSGSKTDFTLTISPVEAEDAATYYCQQSREYPYTFGGGTKLEIKRTVAAPSVFIFPPSDEQLKSGTASVVCLLNNFYPREAKVQWKVDNALQSGNSQESVTEQDSKDSTYSLSSTLTLSKADYEKHKVYACEVTHQGLSSPVTKSFNRGECGGGGSLPETGGLLGDFFRKSKEKIGKEFKRIVQRIKDFLRNLVPRTES
notes: also called anti-folate receptor mAb (mirvetuximab) with LL37 conjugation
binding result (folate receptor): binds

B2: Anti-CD33A mAb (Vadastuximab)-LL37 (antibody, human IgG1, kappa)
heavy: not shown
light: DIQMTQSPSSLSASVGDRVTINCKASQDINSYLSWFQQKPGKAPKTLIYRANRLVDGVPSRFSGSGSGQDYTLTISSLQPEDFATYYCLQYDEFPLTFGGGTKVEIKRTVAAPSVFIFPPSDEQLKSGTASVVCLLNNFYPREAKVQWKVDNALQSGNSQESVTEQDSKDSTYSLSSTLTLSKADYEKHKVYACEVTHQGLSSPVTKSFNRGECGGGGSLPMTGGLLGDFFRKSKEKIGKEFKRIVQRIKDFLRNLVPRTES
binding result (CD33A): binds

B3: Anti-NaPi2b mAb, Lifastuzumab (antibody, human IgG1, kappa)
heavy: not shown
light: DIQMTQSPSSLSASVGDRVTITCRSSETLVHSSGNTYLEWYQQKPGKAPKLLIYRVSNRFSGVPSRFSGSGSGTDFTLTISSLQPEDFATYYCFQGSFNPLTFGQGTKVEIKRTVAAPSVFIFPPSDEQLKSGTASVVCLLNNFYPREAKVQWKVDNALQSGNSQESVTEQDSKDSTYSLSSTLTLSKADYEKHKVYACEVTHQGLSSPVTKSFNRGECGGGGSLPMTGGHG
binding result [1]: binds

B4: Lifastuzumab-LL37 (LL37-linked anti-NaPi2b mAb) (antibody, human IgG1, kappa)
heavy: not shown
light: DIQMTQSPSSLSASVGDRVTITCRSSETLVHSSGNTYLEWYQQKPGKAPKLLIYRVSNRFSGVPSRFSGSGSGTDFTLTISSLQPEDFATYYCFQGSFNPLTFGQGTKVEIKRTVAAPSVFIFPPSDEQLKSGTASVVCLLNNFYPREAKVQWKVDNALQSGNSQESVTEQDSKDSTYSLSSTLTLSKADYEKHKVYACEVTHQGLSSPVTKSFNRGECGGGGSLPMTGGLLGDFFRKSKEKIGKEFKRIVQRIKDFLRNLVPRTES
binding result [2]: binds

B5: Anti-EpCAM mAb, Citatuzumab (antibody, human IgG1, kappa)
heavy: not shown
light: DIQMTQSPSSLSASVGDRVTITCRSTKSLLHSNGITYLYWYQQKPGKAPKLLIYQMSNLASGVPSRFSSSGSGTDFTLTISSLQPEDFATYYCAQNLEIPRTFGQGTKVEIKRTVAAPSVFIFPPSDEQLKSGTASVVCLLNNFYPREAKVQWKVDNALQSGNSQESVTEQDSKDSTYSLSSTLTLSKADYEKHKVYACEVTHQGLSSPVTKSFNRGECGGGGSLPMTGGHG
binding result [3]: binds

B6: Citatuzumab-LL37 (LL37-conjugated anti-EpCAM antibody citatuzumab) (antibody, human IgG1, kappa)
heavy: not shown
light: DIQMTQSPSSLSASVGDRVTITCRSTKSLLHSNGITYLYWYQQKPGKAPKLLIYQMSNLASGVPSRFSSSGSGTDFTLTISSLQPEDFATYYCAQNLEIPRTFGQGTKVEIKRTVAAPSVFIFPPSDEQLKSGTASVVCLLNNFYPREAKVQWKVDNALQSGNSQESVTEQDSKDSTYSLSSTLTLSKADYEKHKVYACEVTHQGLSSPVTKSFNRGECGGGGSLPMTGGLLGDFFRKSKEKIGKEFKRIVQRIKDFLRNLVPRTES
binding result [4]: binds
